First the molecules themselves.
B1: BAG3^WT (recombinant) (natural protein)
chain: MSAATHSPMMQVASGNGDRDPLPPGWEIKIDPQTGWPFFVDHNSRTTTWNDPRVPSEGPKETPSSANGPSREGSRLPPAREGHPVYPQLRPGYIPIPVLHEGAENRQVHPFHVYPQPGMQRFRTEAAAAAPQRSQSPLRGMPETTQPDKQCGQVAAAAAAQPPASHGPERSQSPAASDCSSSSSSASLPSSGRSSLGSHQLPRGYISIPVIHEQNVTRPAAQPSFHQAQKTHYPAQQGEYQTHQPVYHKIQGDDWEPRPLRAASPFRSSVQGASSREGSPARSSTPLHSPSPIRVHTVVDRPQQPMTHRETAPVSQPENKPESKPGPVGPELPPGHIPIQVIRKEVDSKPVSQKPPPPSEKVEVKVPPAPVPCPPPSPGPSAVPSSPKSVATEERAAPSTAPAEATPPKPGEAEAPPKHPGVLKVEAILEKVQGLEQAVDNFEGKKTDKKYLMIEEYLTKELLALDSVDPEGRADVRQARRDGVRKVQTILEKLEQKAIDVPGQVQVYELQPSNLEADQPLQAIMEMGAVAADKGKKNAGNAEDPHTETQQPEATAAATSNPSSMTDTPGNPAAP
B2: BAG3 with deletion of both IPV motifs (recombinant) (natural protein)
chain: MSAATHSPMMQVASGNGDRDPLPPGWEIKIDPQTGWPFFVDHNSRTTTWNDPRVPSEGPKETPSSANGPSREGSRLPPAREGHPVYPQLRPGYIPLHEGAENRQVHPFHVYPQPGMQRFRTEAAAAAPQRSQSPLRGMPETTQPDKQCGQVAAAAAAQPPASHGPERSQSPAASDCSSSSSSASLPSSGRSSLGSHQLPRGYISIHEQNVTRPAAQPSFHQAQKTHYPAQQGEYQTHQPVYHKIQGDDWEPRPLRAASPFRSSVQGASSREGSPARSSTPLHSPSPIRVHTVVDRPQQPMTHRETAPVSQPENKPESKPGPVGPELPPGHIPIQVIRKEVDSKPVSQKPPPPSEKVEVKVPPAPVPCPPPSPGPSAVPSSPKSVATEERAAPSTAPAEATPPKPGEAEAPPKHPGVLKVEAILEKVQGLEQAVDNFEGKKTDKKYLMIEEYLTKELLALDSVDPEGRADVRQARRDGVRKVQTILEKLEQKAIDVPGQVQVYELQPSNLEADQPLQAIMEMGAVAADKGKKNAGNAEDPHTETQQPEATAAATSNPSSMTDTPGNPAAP
B3: BAG3 with complete deletion of the IPV2 motif (recombinant) (natural protein)
chain: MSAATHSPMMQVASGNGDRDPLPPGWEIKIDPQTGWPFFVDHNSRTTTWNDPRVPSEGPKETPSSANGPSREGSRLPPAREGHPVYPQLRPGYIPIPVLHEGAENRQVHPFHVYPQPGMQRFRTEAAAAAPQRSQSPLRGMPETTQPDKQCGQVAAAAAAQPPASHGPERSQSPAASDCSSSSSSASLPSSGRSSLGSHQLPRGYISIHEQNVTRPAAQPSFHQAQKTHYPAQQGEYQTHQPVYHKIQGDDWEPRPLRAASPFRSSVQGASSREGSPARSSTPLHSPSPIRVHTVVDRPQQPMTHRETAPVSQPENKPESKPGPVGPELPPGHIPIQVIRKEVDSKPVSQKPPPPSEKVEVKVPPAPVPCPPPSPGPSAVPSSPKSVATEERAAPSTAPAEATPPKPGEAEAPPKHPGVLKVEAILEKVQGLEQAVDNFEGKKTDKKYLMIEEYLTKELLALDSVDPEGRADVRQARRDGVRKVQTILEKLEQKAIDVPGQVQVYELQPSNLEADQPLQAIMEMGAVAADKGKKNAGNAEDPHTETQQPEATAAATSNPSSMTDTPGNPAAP

A value given as a limit tells only on which side of the number the result lay.

HSPB1c/Hsp27c (model human HSPB fragment), sequence (P04792 80-176): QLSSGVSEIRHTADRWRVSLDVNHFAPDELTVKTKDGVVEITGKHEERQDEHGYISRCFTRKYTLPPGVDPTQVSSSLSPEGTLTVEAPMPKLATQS

The experiment concerns the target HSPB1c/Hsp27c (model human HSPB fragment) (human, UniProt P04792 80-176). Put plainly: ITC.
Turning to B1, the Kd was 490 nM.
Next, B2: > 100000 nM; B3: 2000 nM.

These data come from article PMC6297355 (2018).
